Reference: paper PMC6973308

How the values were obtained:
[1] = target: anti-HER2 (trastuzumab) heavy chain, produced alone; test: HPLC-MS
[2] = target: anti-HER2 (trastuzumab) heavy chain, produced alone; test: SDS-PAGE
[3] = target: anti-HER2 (trastuzumab) heavy chain, produced alone; test: SEC
[4] = target: anti-HER2 (trastuzumab) light chain, produced alone; test: SEC
[5] = target: anti-HER2 (trastuzumab) light chain, produced alone; test: SDS-PAGE

Q: What does the source list for “anti-HER2 (trastuzumab) heavy chain, produced alone (domain or fragment)”?
A: stoichiometry N [1]: 2; stoichiometry N [2]: 2

Q: What does the source list for “anti-HER2 (trastuzumab) light chain, produced alone (domain or fragment)”?
A: % Area of monomer mAb (SEC-HPLC) [3]: 90.1 % Area; stoichiometry N [4]: 2; percent of LC dimers covalently bonded (42 KDa band) [5]: 55%
